From publication doi:10.1101/2022.04.19.488791 (bioRxiv, 2022)
Read-outs that look alike come from different tables or passages of the source.

Columns and labels:
Assay in all cases: cryo-EM structure
[1] = biological target: T1, Slh1 helicase subunit of the ribosome quality control trigger complex RQT (wild type) (yeast, UniProt P53327 1-1967)
[2] = biological target: Slh1-K316R, ATPase-deficient Slh1 subunit of K316R-RQT (yeast, UniProt P53327 1-1967, K316R)
[3] = biological target: T1, Slh1 helicase subunit of the ribosome …; remark: listed apart in the source

T1 sequence (P53327 whole entry, one chain of several): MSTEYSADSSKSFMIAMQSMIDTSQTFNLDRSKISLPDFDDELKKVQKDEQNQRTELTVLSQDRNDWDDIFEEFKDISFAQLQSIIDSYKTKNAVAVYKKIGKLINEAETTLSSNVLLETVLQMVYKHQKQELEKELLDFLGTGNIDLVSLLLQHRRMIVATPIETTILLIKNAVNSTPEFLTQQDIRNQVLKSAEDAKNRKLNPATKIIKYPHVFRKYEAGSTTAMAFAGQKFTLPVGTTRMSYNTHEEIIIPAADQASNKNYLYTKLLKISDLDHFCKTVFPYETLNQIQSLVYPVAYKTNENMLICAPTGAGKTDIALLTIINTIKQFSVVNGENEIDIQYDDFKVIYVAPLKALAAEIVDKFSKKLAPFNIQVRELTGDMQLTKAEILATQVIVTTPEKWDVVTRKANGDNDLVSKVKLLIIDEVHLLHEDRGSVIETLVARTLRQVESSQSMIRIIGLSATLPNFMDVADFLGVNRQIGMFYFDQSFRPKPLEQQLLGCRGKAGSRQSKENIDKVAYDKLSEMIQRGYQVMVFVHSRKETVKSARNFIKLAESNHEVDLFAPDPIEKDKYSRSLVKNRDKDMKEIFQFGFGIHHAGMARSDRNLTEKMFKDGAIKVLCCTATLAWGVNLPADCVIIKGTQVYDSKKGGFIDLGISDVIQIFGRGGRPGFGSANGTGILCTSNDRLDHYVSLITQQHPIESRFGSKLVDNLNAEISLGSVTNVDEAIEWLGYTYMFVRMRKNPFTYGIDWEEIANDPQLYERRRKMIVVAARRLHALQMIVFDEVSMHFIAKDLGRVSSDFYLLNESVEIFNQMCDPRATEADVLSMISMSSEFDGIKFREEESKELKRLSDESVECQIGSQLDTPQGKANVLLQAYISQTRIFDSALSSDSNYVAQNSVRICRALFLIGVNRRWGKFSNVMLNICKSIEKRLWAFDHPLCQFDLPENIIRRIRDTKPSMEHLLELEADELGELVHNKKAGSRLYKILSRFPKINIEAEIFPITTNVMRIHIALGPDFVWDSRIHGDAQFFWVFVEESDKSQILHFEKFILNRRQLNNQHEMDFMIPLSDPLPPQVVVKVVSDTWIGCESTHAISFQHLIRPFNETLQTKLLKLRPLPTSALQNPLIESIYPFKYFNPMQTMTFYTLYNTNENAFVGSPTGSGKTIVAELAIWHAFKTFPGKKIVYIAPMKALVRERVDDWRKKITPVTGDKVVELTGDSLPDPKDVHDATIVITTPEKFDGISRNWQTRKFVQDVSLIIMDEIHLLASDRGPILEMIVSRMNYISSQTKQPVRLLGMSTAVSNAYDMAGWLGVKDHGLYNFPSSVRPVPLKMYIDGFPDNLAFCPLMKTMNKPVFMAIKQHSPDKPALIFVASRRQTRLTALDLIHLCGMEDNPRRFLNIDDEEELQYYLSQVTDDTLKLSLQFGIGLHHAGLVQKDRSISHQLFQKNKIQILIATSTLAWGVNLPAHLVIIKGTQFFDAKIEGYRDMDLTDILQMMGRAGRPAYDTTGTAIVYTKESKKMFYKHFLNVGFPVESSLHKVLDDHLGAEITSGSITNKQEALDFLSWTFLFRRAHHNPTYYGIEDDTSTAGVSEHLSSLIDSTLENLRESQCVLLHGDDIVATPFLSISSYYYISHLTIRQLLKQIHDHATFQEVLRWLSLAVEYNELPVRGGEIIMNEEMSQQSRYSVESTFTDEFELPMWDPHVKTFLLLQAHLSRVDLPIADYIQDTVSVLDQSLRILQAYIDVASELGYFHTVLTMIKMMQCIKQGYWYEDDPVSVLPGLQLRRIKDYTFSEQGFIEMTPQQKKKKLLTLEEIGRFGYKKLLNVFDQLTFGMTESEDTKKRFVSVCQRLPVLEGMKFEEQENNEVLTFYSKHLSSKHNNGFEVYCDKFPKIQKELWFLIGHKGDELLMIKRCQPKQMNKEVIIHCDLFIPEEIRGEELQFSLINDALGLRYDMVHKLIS
Chain of Slh1-K316R, ATPase-deficient Slh1 subunit of K316R-RQT (P53327 whole entry K316R): as the sequence (P53327 whole entry, one chain of several) above, with K316R counted along it

Row | Binder | binding result [1] | binding result [2] | binding result [3]
1 | ribosomal protein uS3 of the 40S subunit (natural protein, UniProt P05750 1-240, looked up) MVALISKKRKLVADGVFYAELNEFFTRELAEEGYSGVEVRVTPTKTEVIIRATRTQDVLGENGRRINELTLLVQKRFKYAPGTIVLYAERVQDRGLSAVAQAESMKFKLLNGLAIRRAAYGVVRYVMESGAKGCEVVVSGKLRAARAKAMKFADGFLIHSGQPVNDFIDTATRHVLMRQGVLGIKVKIMRDPAKSRTGPKALPDAVTIIEPKEEEPILAPSVKDYRPAEETEAQAEPVEA | binds | – | –
2 | Cue3, ubiquitin-binding CUE domain containing subunit of RQT (natural protein, yeast, UniProt P53137 1-624, looked up) MLSRYNRVIEINGGNADISLPIVKFPPFKLRAQLIEKDPVVWLHLIETYVTYFEYLMQGANVELLDESTLDHLRLFLRTYLHEIADEEGKLLSLGINHDVSEQLYLLKGWIFSLIKKCGLLHLQIFGDSLWNLIKVYVRRNPDSIRGLIDGSLKPRINTQRVQLDKSYQVQQHLKQLIESGKFKRIDLRCVEDLLSAKSMQPNKFAENFFTANWIEILEALWAKGQGRGHKEARELIIISLFSVSADRLLKITKELGISNFETLALYPLLGTMLINEGVHKRLPDLKSKLLFLNLGGLSMDEGDHMSYPTSSGTEVNEEQLSALMELFPQFSKYQLSQTLLAYDNNIELVTNKIFEDPTIIEAFSREPAEEEVEPVSDGDNASFTEELSILDRGDSSKNKELDKKIISEGVPDELRNKTLTRALKLLYEADEDERDDTYDEADVNRSDPSKRIGLQEDEESYDTKDDSNEVRQDHNYHIVEAYLWNLLKEDPKLFERSKRGTKVRKTMKEMTSWSDEKIEGWCRMLERSPTRARLLEKKFMFKGNSKTGKTSYVHNRDSQNDGNVVKEQAKQKKSENIKKHEPQSTEQKKRQHAKNEKRKGARANHNRKKGHDKKLARAGNNAI | – | binds | binds
3 | Rqt4, zinc-finger containing subunit of RQT (natural protein, yeast, UniProt P36119 1-530, looked up) MTRKQAIDYAIKQVPQILPLEESDVKALCEQVLSTSSDDPEQIASKFLEFLGHEDLSFEFVMKFNELLNQNDKKEEKKTKNVHLEHTAPTSWKNESKQPTNNYINKKGDEKPKKLKDEKKSSTTRPTVQPSNQSTQSNPIKEKKEHRSKGKLQSLQEIDEAIKMLELRDSGSSKNCNCQGTRHPVFDIAPNCLHCGKVVCVIEGLNKGKCGHCHEQLISDNERTQMVEILNQEKNELNGSSSSLSNASNGANVPKKKTKTYKITSGMGKNLFAEQDKLFDFIERKRERERKRNEVLKLQEEKEESEAKERQASEHDHKAEENPELLAAQERLDRLLYFQDTSAERTKIIDNASDFDMNQEVGLWGSARERALALKKQQRNLRKWEKVEKERNGRREKYVVSMNIGSNGKVTMTEVPKDTENVIAGSDDDISDISDEEDISDLKHIHALKSEINTTKSLENLHLQSKAWDYERDKKQFDRPTYVKKNSDTAQQNRKTEEKAHDMQAYDLKSRVQVDQNADASVEQNILAVL | – | binds | binds
4 | RACK1 (Asc1) of the 40S head (natural protein, UniProt P38011 1-319, looked up) MASNEVLVLRGTLEGHNGWVTSLATSAGQPNLLLSASRDKTLISWKLTGDDQKFGVPVRSFKGHSHIVQDCTLTADGAYALSASWDKTLRLWDVATGETYQRFVGHKSDVMSVDIDKKASMIISGSRDKTIKVWTIKGQCLATLLGHNDWVSQVRVVPNEKADDDSVTIISAGNDKMVKAWNLNQFQIEADFIGHNSNINTLTASPDGTLIASAGKDGEIMLWNLAAKKAMYTLSAQDEVFSLAFSPNRYWLAAATATGIKVFSLDPQYLVDDLRPEFAGYSKAAEPHAVSLAWSADGQTLFAGYTDNVIRVWQVMTAN | binds | – | –
5 | ribosomal protein uS5 of the 40S subunit (natural protein, UniProt P25443 1-254, looked up) MSAPEAQQQKRGGFGGRNRGRPNRRGPRNTEEKGWVPVTKLGRLVKAGKITTIEEIFLHSLPVKEFQIIDTLLPGLQDEVMNIKPVQKQTRAGQRTRFKAVVVVGDSNGHVGLGIKTAKEVAGAIRAGIIIAKLSVIPIRRGYWGTNLGQPHSLATKTTGKCGSVTVRLIPAPRGSGIVASPAVKKLLQLAGVEDVYTQSNGKTRTLENTLKAAFVAIGNTYGFLTPNLWAEQPLPVSPLDIYSDEASAQKKRF | binds | – | –
